Test results: patent US20090092581A1
Residue numbers refer to the chain shown, from its start. Values joined by “and” are separate entries in the source; they are usually repeats but may differ in a detail not shown here. Equal values may be shown once. Blank lines part the entries; values can stand above or below the molecule they belong to.

Key:
[1] = target: T1, Type I IFN receptor on iLite human IFN-α gene-reporter cells (human) (UniProt P17181); assay: cell-based or functional assay
T1 sequence (looked up) 1: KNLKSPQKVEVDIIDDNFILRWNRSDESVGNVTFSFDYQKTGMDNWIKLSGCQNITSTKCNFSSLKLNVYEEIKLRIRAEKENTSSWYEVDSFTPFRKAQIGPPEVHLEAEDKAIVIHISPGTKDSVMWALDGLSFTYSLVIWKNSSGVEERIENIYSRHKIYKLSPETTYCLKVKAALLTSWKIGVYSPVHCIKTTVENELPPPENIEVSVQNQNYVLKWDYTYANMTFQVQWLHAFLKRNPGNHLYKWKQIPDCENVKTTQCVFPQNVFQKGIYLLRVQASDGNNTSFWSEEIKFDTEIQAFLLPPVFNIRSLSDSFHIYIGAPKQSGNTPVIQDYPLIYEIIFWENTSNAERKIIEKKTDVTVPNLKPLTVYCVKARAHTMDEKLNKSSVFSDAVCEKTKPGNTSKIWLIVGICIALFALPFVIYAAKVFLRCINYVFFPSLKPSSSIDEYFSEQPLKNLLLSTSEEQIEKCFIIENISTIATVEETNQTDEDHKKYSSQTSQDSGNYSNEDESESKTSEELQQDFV
T1 sequence (looked up) 2: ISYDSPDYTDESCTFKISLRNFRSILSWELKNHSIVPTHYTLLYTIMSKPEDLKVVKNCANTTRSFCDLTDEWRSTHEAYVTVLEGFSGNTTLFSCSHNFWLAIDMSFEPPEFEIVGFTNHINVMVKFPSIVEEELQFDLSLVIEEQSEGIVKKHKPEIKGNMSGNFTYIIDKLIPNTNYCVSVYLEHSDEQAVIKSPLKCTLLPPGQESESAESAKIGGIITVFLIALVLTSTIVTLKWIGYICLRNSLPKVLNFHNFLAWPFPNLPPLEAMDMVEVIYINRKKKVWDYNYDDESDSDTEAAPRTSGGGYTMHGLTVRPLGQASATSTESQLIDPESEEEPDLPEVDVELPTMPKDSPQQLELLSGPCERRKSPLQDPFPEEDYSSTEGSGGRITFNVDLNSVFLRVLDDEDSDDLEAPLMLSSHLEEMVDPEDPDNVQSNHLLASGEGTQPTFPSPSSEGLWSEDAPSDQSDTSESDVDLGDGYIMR

[2] = target: Cynomolgus IFN-α protein SEQ ID 46, expressed in Vero tissue culture supernatant (Cynomolgus (Macaca fascicularis)); assay: ELISA kit PBL #41105 on Vero supernatant; read against human IFN-α2a standard curve; unit not given
[3] = target: Cynomolgus IFN-α protein SEQ ID 56, expressed in Vero tissue culture supernatant (Cynomolgus (Macaca fascicularis)); assay: as above
[4] = target: Cynomolgus IFN-α protein SEQ ID 62, expressed in Vero tissue culture supernatant (Cynomolgus (Macaca fascicularis)); assay: as above
[5] = target: Cynomolgus IFN-α protein SEQ ID 42, expressed in Vero tissue culture supernatant (Cynomolgus (Macaca fascicularis)); assay: as above
[6] = target: Cynomolgus IFN-α protein SEQ ID 58, expressed in Vero tissue culture supernatant (Cynomolgus (Macaca fascicularis)); assay: as above
[7] = target: Cynomolgus IFN-α protein SEQ ID 60, expressed in Vero tissue culture supernatant (Cynomolgus (Macaca fascicularis)); assay: as above
[8] = target: Cynomolgus IFN-α protein SEQ ID 66, expressed in Vero tissue culture supernatant (Cynomolgus (Macaca fascicularis)); assay: as above
[9] = target: Cynomolgus IFN-α protein SEQ ID 50, expressed in Vero tissue culture supernatant (Cynomolgus (Macaca fascicularis)); assay: as above
[10] = target: Cynomolgus IFN-α protein SEQ ID 54, expressed in Vero tissue culture supernatant (Cynomolgus (Macaca fascicularis)); assay: ELISA kit PBL #41105 on Vero supernatant; read against human IFN-α2a standard curve; unit not given; first of two values
[11] = target: Cynomolgus IFN-α protein SEQ ID 54, expressed in Vero tissue culture supernatant (Cynomolgus (Macaca fascicularis)); assay: ELISA kit PBL #41105 on Vero supernatant; read against human IFN-α2a standard curve; unit not given; second of two values
[12] = target: Cynomolgus IFN-α protein SEQ ID 46, expressed in Vero tissue culture supernatant (Cynomolgus (Macaca fascicularis)); assay: ELISA kit PBL #41100 (head prints 41110) on Vero supernatant; read against human IFN-α2a standard curve; unit not given
[13] = target: Cynomolgus IFN-α protein SEQ ID 56, expressed in Vero tissue culture supernatant (Cynomolgus (Macaca fascicularis)); assay: as above
[14] = target: Cynomolgus IFN-α protein SEQ ID 54, expressed in Vero tissue culture supernatant (Cynomolgus (Macaca fascicularis)); assay: as above
[15] = target: Cynomolgus IFN-α protein SEQ ID 62, expressed in Vero tissue culture supernatant (Cynomolgus (Macaca fascicularis)); assay: as above
[16] = target: Cynomolgus IFN-α protein SEQ ID 42, expressed in Vero tissue culture supernatant (Cynomolgus (Macaca fascicularis)); assay: as above
[17] = target: Cynomolgus IFN-α protein SEQ ID 58, expressed in Vero tissue culture supernatant (Cynomolgus (Macaca fascicularis)); assay: as above
[18] = target: Cynomolgus IFN-α protein SEQ ID 60, expressed in Vero tissue culture supernatant (Cynomolgus (Macaca fascicularis)); assay: as above
[19] = target: Cynomolgus IFN-α protein SEQ ID 66, expressed in Vero tissue culture supernatant (Cynomolgus (Macaca fascicularis)); assay: as above
[20] = target: Cynomolgus IFN-α protein SEQ ID 50, expressed in Vero tissue culture supernatant (Cynomolgus (Macaca fascicularis)); assay: as above
[21] = target: Cynomolgus interferon alpha 2 (SEQ ID NO: 66), purified from inclusion bodies after expression in E. coli (Cynomolgus (Macaca fascicularis)); assay: sandwich ELISA kit PBL #41100-1; signal relative to human IFN-α2 (FIG. 3)
[22] = target: Rhesus interferon alpha 2 (Rhesus) (UniProt B6CK11); assay: as above
Sequence of UniProt B6CK11 (B6CK11 entry or part of it): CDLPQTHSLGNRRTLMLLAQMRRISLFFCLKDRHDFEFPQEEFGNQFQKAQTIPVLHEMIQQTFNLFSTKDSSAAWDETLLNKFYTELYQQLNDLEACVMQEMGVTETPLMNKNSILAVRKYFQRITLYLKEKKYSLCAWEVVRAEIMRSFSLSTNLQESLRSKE

Molecule: Cynomolgus IFN-α protein SEQ ID 54, expressed in Vero tissue culture supernatant (from UniProt P01568 24-188) (ligand)
% Neutralization of Luciferase Induction by anti-Type I IFN Receptor Antibody (25 µg/mL) [1]: > 99%
Luciferase Induction Activity (U/mL) [1]: 11600 U/mL

Molecule: Cynomolgus IFN-α protein SEQ ID 60, expressed in Vero tissue culture supernatant (from UniProt P32881 24-189) (ligand)
% Neutralization of Luciferase Induction by anti-Type I IFN Receptor Antibody (25 µg/mL) [1]: > 99%
Luciferase Induction Activity (U/mL) [1]: 48900 U/mL

Molecule: Cynomolgus IFN-α protein SEQ ID 58, expressed in Vero tissue culture supernatant (from UniProt P01570 24-189) (ligand)
% Neutralization of Luciferase Induction by anti-Type I IFN Receptor Antibody (25 µg/mL) [1]: > 99%
Luciferase Induction Activity (U/mL) [1]: 8950 U/mL

Molecule: Cynomolgus IFN-α protein SEQ ID 62, expressed in Vero tissue culture supernatant (from UniProt P01571 24-189) (ligand)
% Neutralization of Luciferase Induction by anti-Type I IFN Receptor Antibody (25 µg/mL) [1]: > 99%
Luciferase Induction Activity (U/mL) [1]: 16000 U/mL

B2: Cynomolgus IFN-α protein SEQ ID 56, expressed in Vero tissue culture supernatant (ligand)
chain: CDLPQTHSLGHRRALILLAQMGRISPFSCLKDRHDFGFPQEEFDGNQFQKAQAMSVLHEMIQQTFNLFSTKDSSAAWEQNLLEKFSAELYQQLNDLKACVIAEPGMEDTPLMNEDSILAVKKYFQRITLYLTEKKYSPCAWEVVRAEIMRSLSFSTNLQKRLRRKD
% Neutralization of Luciferase Induction by anti-Type I IFN Receptor Antibody (25 µg/mL) [1]: > 99%
Luciferase Induction Activity (U/mL) [1]: 822 U/mL

B3: Cynomolgus IFN-α protein SEQ ID 44, expressed in Vero tissue culture supernatant (ligand)
chain: B2 chain with H34R, G37A, A146T
% Neutralization of Luciferase Induction by anti-Type I IFN Receptor Antibody (25 µg/mL) [1]: > 99%
Luciferase Induction Activity (U/mL) [1]: 2830 U/mL

More lines, now with the values ahead:

% Neutralization of Luciferase Induction by anti-Type I IFN Receptor Antibody (25 µg/mL) [1]: > 99%
Luciferase Induction Activity (U/mL) [1]: 36700 U/mL
Molecule: Cynomolgus IFN-α protein SEQ ID 42, expressed in Vero tissue culture supernatant (from UniProt P01571 24-189) (ligand)

% Neutralization of Luciferase Induction by anti-Type I IFN Receptor Antibody (25 µg/mL) [1]: > 99%
Luciferase Induction Activity (U/mL) [1]: 6630 U/mL
Molecule: Cynomolgus IFN-α protein SEQ ID 66, expressed in Vero tissue culture supernatant (from UniProt P01563 24-188) (ligand)

ELISA estimate of IFN-α protein level in tissue culture supernatant [2]: 187 and 123
ELISA estimate of IFN-α protein level in tissue culture supernatant [3]: 289 and 414
ELISA estimate of IFN-α protein level in tissue culture supernatant [4]: 75 and 95
ELISA estimate of IFN-α protein level in tissue culture supernatant [5]: 287 and 566
ELISA estimate of IFN-α protein level in tissue culture supernatant [6]: > 1120
ELISA estimate of IFN-α protein level in tissue culture supernatant [7]: > 651 and 1000
ELISA estimate of IFN-α protein level in tissue culture supernatant [8]: > 651 and 1500
ELISA estimate of IFN-α protein level in tissue culture supernatant [9]: > 1120
ELISA estimate of IFN-α protein level in tissue culture supernatant [10]: 8
ELISA estimate of IFN-α protein level in tissue culture supernatant [11]: 8
Molecule: Human IFN-α Multi-Subtype ELISA kit, PBL # 41105 (kit antibodies) (antibody)

% Neutralization of Luciferase Induction by anti-Type I IFN Receptor Antibody (25 µg/mL) [1]: > 99%
Luciferase Induction Activity (U/mL) [1]: 2700 U/mL
Molecule: Cynomolgus IFN-α protein SEQ ID 46, expressed in Vero tissue culture supernatant (from UniProt P01571 24-189) (ligand)

ELISA estimate of IFN-α protein level in tissue culture supernatant [12]: 0
ELISA estimate of IFN-α protein level in tissue culture supernatant [13]: 0
ELISA estimate of IFN-α protein level in tissue culture supernatant [14]: 11
ELISA estimate of IFN-α protein level in tissue culture supernatant [15]: 0
ELISA estimate of IFN-α protein level in tissue culture supernatant [16]: 0
ELISA estimate of IFN-α protein level in tissue culture supernatant [17]: 66
ELISA estimate of IFN-α protein level in tissue culture supernatant [18]: 0
ELISA estimate of IFN-α protein level in tissue culture supernatant [19]: 184
ELISA estimate of IFN-α protein level in tissue culture supernatant [20]: 296
specific ELISA signal compared to human IFN-α2 [21]: 10%
specific ELISA signal compared to human IFN-α2 [22]: 10%
Molecule: Human IFN-α ELISA kit, PBL Biomedical Laboratories Product #41100-1 (kit antibodies) (antibody)

% Neutralization of Luciferase Induction by anti-Type I IFN Receptor Antibody (25 µg/mL) [1]: > 99%
Luciferase Induction Activity (U/mL) [1]: 8040 U/mL
B1: Cynomolgus IFN-α protein SEQ ID 50, expressed in Vero tissue culture supernatant (ligand)
chain: CNPSQTHNMNNRRTLMLMAQMRRISPFSCLKDRNDFEFPQEEFDGNQFQNTQAISVLHEMMQQTFNLFSTKDSSAAWDETLLDKFYIELFQQLNDLEACVIQEAGVEETPLMNEDSILAVRKYFQRITLYLMEKKYSPCAWEVVRAEIMRSLSFSTNLQKRLRRKD

% Neutralization of Luciferase Induction by anti-Type I IFN Receptor Antibody (25 µg/mL) [1]: > 99%
Luciferase Induction Activity (U/mL) [1]: 2170 U/mL
B4: Cynomolgus IFN-α protein SEQ ID 48, expressed in Vero tissue culture supernatant (ligand)
chain: MALSFSLLMAVVVLSYKSICSLGCDPPRTHSLGHRRALILLAQMERISPFSCLKDRCDFAFPQEEFDGNQFQKAQAMSVLHEMIQQTFNLFSTKDSSAAWEQNLLEKFSAELYQQLNDLKACVIAEPGMEETLLMNEDSILAVKKYFQRITLYLTEKKYSPCAWEVVRAEIMRSLSFSTNLQKRLRRKD

% Neutralization of Luciferase Induction by anti-Type I IFN Receptor Antibody (25 µg/mL) [1]: > 99%
Luciferase Induction Activity (U/mL) [1]: 515 U/mL
B5: Cynomolgus IFN-α protein SEQ ID 52, expressed in Vero tissue culture supernatant (ligand)
chain: MALSFSLLMAVVVLSYKSICSLGCDLPQTHSLGHRRALILLAQMQRISLPSCLKDRHDFAFLQEFDGNQFQKAQAMSVLHEMIQQTFNLLSTKDSSAAWDETLLDKFYIELFQQLNDLEACVIQEAGVEETPLMNEDSILAVRKYFQRITLYLTEKKYSPCAWEVVRAEIMRSLSFSTNLQKRLGRKD
